Assay results published in FireProtDB (doi:10.1002/pro.5560010205).

Details: Mus musculus; pH 4; 23 °C; GdnHCl; Fluorescence; sodium phosphate 100 mM; reversible: yes; whole UniProt chain shown

B1: Beta-nerve growth factor wild type, P01139 (protein)
chain: MSMLFYTLITAFLIGVQAEPYTDSNVPEGDSVPEAHWTKLQHSLDTALRRARSAPTAPIAARVTGQTRNITVDPRLFKKRRLHSPRVLFSTQPPPTSSDTLDLDFQAHGTIPFNRTHRSKRSSTHPVFHMGEFSVCDSVSVWVGDKTTATDIKGKEVTVLAEVNINNSVFRQYFFETKCRASNPVESGCRGIDSKHWNSYCTTTHTFVKALTTDEKQAAWRFIRIDTACVCVLSRKATRRG
unfolding free energy: 14.5 kcal/mol
